Source: PMC12373997
Residue numbers refer to the chain shown, from its start. In names and notes the source's numbering stands.

B1: D. melanogaster augmin N-clamp with Dgt6^3A-mut (K82A, R88A, K96A) (complex)
chain 1: MSDAVDKMLAGMAANRQTMNRQLAKIDEIMERSNNTLLHIESNSKAFSQNVALSETQKMYNLRPEAEMTLSKILENFKLLMSSSDQREETYSALEGCLAYRHRVEHLGSSVRKLVALYDTVGQMKNSQEEQYASEDSP
chain 2: MDRTIIAPWKAEEKEQSEKLHRKLQGLALVHPLPDELRKLIAWDMFLKPNQVAFVHVMHYLFRLLDPAEFKRRFFWPITDKASEANFASSTVEYLAHLNEKHQLHWANIKSYLVVMPGGMRFINFLLEFVGFVIQELIKQREKSLGLEAGTPNVSAKVMARQNAVMKEYASSYVVNLEENTALLRDKTQKIRRLMADLSADMGVPEEQLADDGFLDEFEATAALGVERVITQPTERKFDLEASLCGLKEAIDLFQVKQAENNQSKEAVEKALRGMRVLFDCDAVTEGDFYDPLGASKMDALLNGFNRISGTIAEQLDANDHYNESNAFVTTDLQALRVELSQSEVQLNNLLKKLNEPSKKDKGSANASGSARVQTLQPATPRFESVISSKFVSTPPIRIDMGGGGGRNAPVRLALQDDFNGKQFDALSNSLLAPAPPRSARKLKALDQSTGIDLNGTLNRSKINDPMQMLRTIHKNTSKVKAAPQANLSSLGSKWKQMQASFGFDEAPVPGAAVISPQTSPTDPSDPFTPLSGSECTRIERIPRTSENNTSLIAKSAAVIKVLEVSRNVLNLSTSPSGRLDALVPHTESHQQDVAPRLQLNDRTINDSLQLDPDFNIENDKNAFNVSHKFDFDQIGGEDDLQNISDSVLKDIIF
chain 3: METNVDFSSISSKLYRKYAQHVRNLKDVCVSKTVMKPGAFFDSLQQMMEEEAAATTPPRDLSSVADYAELFKTLEEYPANLQKMPKKRELQRTNSTLLRGADESVAMGINTSNVSLSLTRLEEQRSAVDVYNDFKGFQRKLAKIYDEAAALDTTESIYKQKLTQLHGFAQQLEKLMPTGGESPPDAFTSEQQEKLLTIAANMEQLNYLRSNSLQLPNPNEILATGSLAARLEMFVEVLTYTLLQVSSYNMAMI
chain 4: METPPTPTTTTPPSLTTEGTMDDIQYLLHLEAMRRFQEDSRNVKRQVEEQVRIWLDAKCEYQRDFGRLARLLKCGALQAAVDAHRVSDVNQVDQAAKDIASLRSKLGSDLRPAILDSNDVKQCLEHLNTTHKPRLNLCRQQREFAQNQEALRSLRTAVDGLENGMEMGMIQAMDRLVEDLLPPRETNN
B2: D. melanogaster augmin N-clamp with Msd5^Δ81–93 (loop deletion) (complex)
chain 1: B1 chain 1
chain 2: B1 chain 2 with A82K, A88R, A96K
chain 3: METNVDFSSISSKLYRKYAQHVRNLKDVCVSKTVMKPGAFFDSLQQMMEEEAAATTPPRDLSSVADYAELFKTLEEYPANNSTLLRGADESVAMGINTSNVSLSLTRLEEQRSAVDVYNDFKGFQRKLAKIYDEAAALDTTESIYKQKLTQLHGFAQQLEKLMPTGGESPPDAFTSEQQEKLLTIAANMEQLNYLRSNSLQLPNPNEILATGSLAARLEMFVEVLTYTLLQVSSYNMAMI
chain 4: B1 chain 4
B3: D. melanogaster augmin N-clamp, wild type (Msd1, Dgt6, Msd5-EGFP-HIS8, Dgt4-HIS8) (complex)
chain 1: B1 chain 1
chain 2: B1 chain 2 with A82K, A88R, A96K
chain 3: B1 chain 3
chain 4: B1 chain 4

What follows are binders tested against Taxol-stabilized microtubules polymerised from purified porcine brain tubulin (porcine) (UniProt P02550) (assay: co-sedimentation; tubulin co-sedimentation: taxol-stabilized MTs (varied, α/β-tubulin heterodimer molarity) with 1 µM purified N-clamp, 0.25 mg/ml BSA, BRB80-MT buffer (80 mM PIPES, 1 mM MgCl2, 1 mM EGTA, 12.5% glycerol, pH 6.8), 20 min at room temperature, 200,000 g 10 min 27 °C; SDS-PAGE densitometry of pellet; apparent Kd from a quadratic fit).

Row | Binder | Kd
1 | B1 | 25500 nM
2 | B2 | 1000 nM
3 | B3 | 400 nM
